“Also recorded” adds a separate entry of the source.
Key:
[1] = system: CA1-LTP in hippocampal slices; test: CA1-LTP in hippocampal slices (theta-burst); type: cell-based, mouse; settings: for Aβ-induced impairment of CA1-LTP (words): fusion protein 20 nM 1 hr, then plus Aβ 200 nM 20 min; for LTP in slices not treated with Aβ (words): fusion protein 20 nM, 3 theta-burst trains
[2] = system: BST at the Schaffer collateral/CA1 connection of hippocampal slices; test: Basal synaptic transmission (BST) in hippocampal slices; type: cell-based, mouse; settings: for BST in WT slices (words): fusion protein 20 nM 1 hr or Aβ 200 nM 20 min, alone
mice (WT and APP/PS1) = test: Contextual and cued fear conditioning; type: in vivo, mouse; settings: for contextual freezing of APP/PS1 mice 1 day after training: 0.02-0.04 g/kg i.p. 4 hrs before training, 3-5 month-old
Method: Behavioral Studies: Fear conditioning was performed in a conditioning chamber as previously described (Bourtchuladze et al., 1994; Gong et al., 2004). For contextual and cued fear conditioning mice were placed in the conditioning chamber for 2 min before the onset of a discrete tone (CS) (a 30 sec sound at 2800 Hz and 85 dB). In the last 2 sec of the CS, mice were given a foot shock (US) of 0.50 mA for 2 sec through the bars of the floor. After the CS/US pairing, the mice were left in the conditioning chamber for another 30 sec and then placed back in their home cages. Freezing behavior, defined as the absence of all movement except for that necessitated by breathing, was scored using Freezeview software. To evaluate contextual fear learning, freezing was measured for 5 min in the chamber in which the mice were trained 24 hrs after training. To evaluate cued fear conditioning, following contextual testing, the mice were placed in a novel context (triangular cage with smooth flat floor and with vanilla odorant) for 2 min (pre-CS test), after which they were exposed to the CS for 3 min (CS test), and freezing was measured. To evaluate the contextual fear over time, mice were placed for 5 min in the chamber in which the mice were trained 7- 14- 21-days after training. Sensory perception of the shock was determined through threshold assessment. Each animal was placed individually into the conditioning chamber. […] Animal behavior was evaluated for the first visible response to the shock (flinch), the first extreme motor response (run/jump), and the first vocalized distress (scream). Threshold to flinching, jumping, and screaming was quantified for each animal by averaging of the shock intensity at which each animal manifested a behavioral response of that type to the foot shock. Visual, motor, and motivation skills were also tested with visible platform training by measuring the time and the speed to reach a visible platform placed within a pool filled with water (Gong et al., 2004). Both time to reach the platform and swimming speed were recorded and analyzed with a video tracking system (HVS-2020, HVS Image, UK). No difference was observed among different groups of mice in the experiments in which fear conditioning was tested both in the presence of LDN and TAT fusion proteins. To decide the time of administration of LDN, experiments were performed in which the inhibitor was injected intra-peritoneally at different intervals (4 hrs before, 1 hr before, 1 hr after and 4 hrs after) from the electric shock. During the training phase, no difference was found in the freezing of LDN- or vehicle-injected mice.

[3] = system: SY5Y neuroblastoma cells transfected with a degron CL1-GFP expression vector; test: Proteasome reporter assay (GFP^u); type: cell-based, human; settings: fusion protein 20 nM with Aβ
Outline: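 SH-SY5Y neuroblastoma cells stably expressing GFP fused to CL1 degron (GFP^u) in DMEM with 15% FBS. After treatment, GFP^u levels quantified by densitometry of anti-GFP immunoblots of total extracts (10 ug/lane), normalized to ERK.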

phospho-CREB at Ser-133 = test: Phospho-CREB (Ser-133) Western blot in hippocampal cultures; type: cell-based, rat
Outline: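 Rat E18 hippocampal neurons cultured serum-free to 5 DIV, lysed in RIPA (pH 7.4, with phosphatase and protease inhibitors). Lysates resolved by SDS-PAGE and immunoblotted with anti-pCREB, HRP detection; band intensities quantified by densitometry and normalized to total ERK1/2.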

[4] = Native gel dimer formation; type: physicochemical
[5] = 20 nM, 1 hr, listed as TAT-Uch-L1 fusion protein
[6] = 12-18 month APP/PS1 slices, 20 nM 1 hr
[7] = listed as TAT-HA-Uch-L1 peptide
[8] = listed as Uch-L1 fusion protein

B1: TAT-HA-Uch-L1: fusion protein: 11-amino acid transduction domain of HIV-transactivator protein (TAT) fused with an HA tag and human Uch-L1 (protein)
chain: MQLKPMEINPEMLNKVLSRLGVAGQWRFVDVLGLEEESLGSVPAPACALLLLFPLTAQHENFRKKQIEELKGQEVSPKVYFMKQTIGNSCGTIGLIHAVANNQDKLGFEDGSVLKQFLSETEKMSPEDRAKCFEKNEAIQAAHDAVAQEGQCRVDDKVNFHFILFNNVDGHLYELDGRMPFPVNHGASSEDTLLKDAAKVCREFTEREQGEVRFSAVALCKAA
modifications: left off: small tags and cut ends
- LTP in slices from 4 month-old APP/PS1 mice ([1]; 20 nM, 1 hr): far greater potentiation; also recorded: elevated above vehicle treated slices; also recorded: completely reversed
- LTP in slices from 4 month-old WT mice ([1]; 20 nM, 1 hr): did not change the amplitude of LTP; also recorded: had no effect on LTP amplitude
- LTP in slices from 12-18 month-old APP/PS1 mice ([1]; 20 nM, 1 hr): greater potentiation; also recorded: had a beneficial effect; also recorded: reversed the impairment of LTP
- LTP in slices from 12-18 month-old WT mice ([1]; 20 nM, 1 hr): did not change the amplitude of LTP; also recorded: did not vary the amounts of potentiation; also recorded: did not affect LTP
- LTP in slices from 12-18 month-old APP/PS1 mice [1, 5]: reverses the decrease of LTP
- LTP in slices from 12-18 month-old WT mice [1, 5]: does not affect LTP
- Levels of LTP at 120 minutes after tetanus ([1]; 4 month APP/PS1 slices, 20 nM 1 hr): about 94 % those of TAT-HA-treated WT littermates
- Levels of LTP at 120 minutes after tetanus ([1]; 4 month WT slices, 20 nM 1 hr): about 98 % those of vehicle-treated WT slices
- levels of LTP [1, 6]: about 82 % that of TAT-HA-treated WT littermates
- Levels of LTP at 120 minutes after tetanus ([1]; 12-18 month WT slices, 20 nM 1 hr): 98.5 % of those of TAT-HA-treated WT slices
- rescue of LTP at different concentrations, S18Y versus TAT-HA-Uch-L1 (words) ([1]; 1 hr pre-treatment, then Aβ 200 nM 20 min, as low as 5 nM): No difference was detected; also recorded: no difference between the two forms
- LTP induced by weak tetanus ([1]; WT slices, 1 theta-burst train instead of 3): enhanced LTP; also recorded: increases LTP
- Aβ-induced impairment of CA1-LTP (words) [1]: protected against LTP suppression; also recorded: completely reversed
- Aβ-induced impairment of CA1-LTP (words) [1, 7]: protected against LTP suppression
- Aβ-induced impairment of CA1-LTP (words) ([1]; listed as TAT-Uch-L1 fusion protein): reversed; also recorded: rescued
- Aβ-induced impairment of CA1-LTP (words) [1, 8]: reverses the deficits of LTP
- LTP in slices not treated with Aβ (words) ([1]; 1 hr, WT slices): did not change the amplitude of LTP; also recorded: had no effect on LTP; also recorded: did not affect the amounts of potentiation; also recorded: did not affect LTP
- LTP in slices not treated with Aβ (words) ([1]; 1 hr, WT slices, listed as Uch-L1 fusion protein): does not affect
- baseline transmission in slices without tetanic stimulation ([1]; non-tetanized slices): did not modify the baseline; also recorded: had no effect on basal synaptic responses; also recorded: did not affect baseline transmission; also recorded: did not affect basal transmission; also recorded: Neither TAT-HA-Uch-L1 nor TAT-HA-iUch-L1 affected baseline transmission
- BST in slices from 12-18 month-old APP/PS1 mice ([2]; 20 nM, 1 hr): also improved; also recorded: improved BST
- BST [2, 6]: about 94 % that of TAT-HA-treated WT mice
- BST in WT slices (words) [2]: did not reveal any significant difference among treatments; also recorded: does not affect CA1-BST
- BST in WT slices (words) [2, 8]: does not affect
- contextual freezing of APP/PS1 mice 1 day after training (mice (WT and APP/PS1)): failed to re-establish normal freezing; also recorded: does not improve learning the day after training
- contextual freezing of APP/PS1 mice 1 day after training (mice (WT and APP/PS1); listed as TA-HA-Uch-L1): failed to re-establish normal freezing
- freezing responses of WT mice (mice (WT and APP/PS1); 0.02-0.04 g/kg i.p., listed as TA-HA-Uch-L1): had no effect
- freezing responses of WT mice (mice (WT and APP/PS1); 0.02-0.04 g/kg, i.p.): did not change the freezing time; also recorded: had no effect
- contextual freezing of APP/PS1 mice at 7, 14 and 21 days after training (mice (WT and APP/PS1); single injection 0.02-0.04 g/kg i.p. 4 hrs prior to training): greatly increased the freezing time; also recorded: improves the retention of contextual fear conditioning; also recorded: re-established normal freezing time
- Aβ-induced increase of GFP^u [3]: reversed
- Aβ-induced increase of GFP^u [3, 7]: blocked the increase of GFP^u
- effect of Aβ on glutamate-induced CREB phosphorylation (words) (phospho-CREB at Ser-133; fusion protein 100 nM, 3 μM Aβ 24 hrs, 50 μM glutamate 15 min): totally blocked the effect of Aβ on CREB phosphorylation; also recorded: re-established; also recorded: completely opposed
- levels of phospho-CREB (phospho-CREB at Ser-133; fusion protein alone, no glutamate): did not affect levels of phospho-CREB
- dimer formation ([4]; 1 μM): no dimer formation was detected; also recorded: No dimers were detected
- dimer formation ([4]; 5 μM): Dimers were seen at 5 μM; also recorded: A weak band corresponding to dimers and other oligomeric species was detected

From patent US7947279B2, “Peptide having hydrolase activity” (The Trustees of Columbia University in the City of New York, priority 2005, dated 2011)
